Laboratory results taken from patent publication US20050095242A1 (published 2005).
Numbering of substitutions follows the chain as printed. No end group written: not given here.

T1: biotinylated Compound 1 (biotinylated CCR4 partial peptide) (human, also: biotinylated, site not given here)
T1 peptide: DESIYSNYYLYESIPKPC

T2: BSA-Compound 1 conjugate (human CCR4 extracellular region peptide Compound 1 conjugated to bovine serum … (human, also: conjugated to BSA via SMCC))
T2 construct: Coated antigen of the ELISA; also called CCR4 partial peptide
T2 peptide: DESIYSNYYLYESIPKPC

T3: human CCR4 on CCR4/EL-4 cells (CCR4-high-expressing cells) (human, UniProt P51679 1-360)
T3 construct: also called human CCR4-high-expressing cell
T3 sequence: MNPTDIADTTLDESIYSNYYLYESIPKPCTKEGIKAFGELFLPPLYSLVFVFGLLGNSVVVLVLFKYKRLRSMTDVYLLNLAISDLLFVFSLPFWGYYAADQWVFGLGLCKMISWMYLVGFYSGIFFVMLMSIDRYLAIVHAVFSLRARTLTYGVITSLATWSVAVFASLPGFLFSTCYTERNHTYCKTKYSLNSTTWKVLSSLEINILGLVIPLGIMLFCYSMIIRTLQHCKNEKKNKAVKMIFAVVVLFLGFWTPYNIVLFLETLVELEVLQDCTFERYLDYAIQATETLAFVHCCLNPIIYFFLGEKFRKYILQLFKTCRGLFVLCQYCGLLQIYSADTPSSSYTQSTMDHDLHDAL

B1: anti-CCR4 CDR-grafted antibody Gal0LV0 (antibody, V domains shown)
VH: EVQLVESGGDLVQPGRSLRLSCAASGFIFSNYGMSWVRQAPGKGLEWVATISSASTYSYYPDSVKGRFTISRDNAKNSLYLQMNSLRVEDTALYYCARHSDGNFAFGYWGQGTLVTVSS
VL: DIVMTQSPLSLPVTPGEPASISCRSSRNIVHINGDTYLEWYLQKPGQSPQLLIYKVSNRFSGVPDRFSGSGSGTDFTLKISRVEAEDVGVYYCFQGSLLPWTFGQGTKVEIK
notes: Expressed from pKANTEX93 with human CH and CL; CDR alone grafted
B2: anti-CCR4 CDR-grafted antibody HV0LV0 (antibody, V domains shown)
VH: B1 VH with D10G, R16G, I28T, A49S, A75S, S78T, V88A, L93V
VL: B1 VL
notes: Expressed from pKANTEX93 with human CH and CL
B3: anti-CCR4 human chimeric antibody KM2760 (antibody, V domains shown)
VH: EVQLVESGGDLMKPGGSLKISCAASGFIFSNYGMSWVRQTPDMRLEWVATISSASTYSYYPDSVKGRFTISRDNAENSLYLQMNSLRSEDTGIYYCGRHSDGNFAFGYWGRGTLVTVSA
VL: DVLMTQTPLSLPVSLGDQASISCRSSRNIVHINGDTYLEWYLQRPGQSPKLLIYKVSNRFSGVPDRFSGSGSGTDFTLKISRVEAEDLGVYYCFQGSLLPWTFGGGTRLEIRR
notes: Produced by transformant KM2760 (FERM BP-7054); also called anti-CCR4 chimeric antibody KM2760

Columns and labels:
[1] = biological target: T1, biotinylated Compound 1 (biotinylated …); experiment: BIAcore 2000, 4 ug/ml antibody over biotinylated Compound 1 on SA sensor tip
Description: In order to measure the binding activity in more detail, the binding activity of various purified antibodies was measured by using BIAcore 2000 (manufactured by BIACORE) as follows. In this case, HBS-EP (manufactured by BIACORE) was used as the buffer for diluting samples and for the measurement. First, 5 μl of 0.01 μg/ml solution of Compound 1 as a biotinylated CCR4 partial peptide was added to a sensor tip SA (manufactured by BIACORE) at a flow rate of 5 μl/minute and immobilized on the sensor tip.
To the prepared biotinylated compound 1-immobilized sensor tip, 20 μl of 4 μg/ml solution of each of the purified antibodies was added at a flow rate of 5 μl/minute, and after completion of the addition, the dissociation reaction was monitored for 4 minutes and then the sensor tip surface was regenerated by adding 5 μl of 10 mM HCl twice. In this way, a binding reaction curve (sensorgram) for Compound 1 was obtained.

[2] = biological target: T2, BSA-Compound 1 conjugate (human CCR4 …); experiment: ELISA, COS-7 culture supernatant on BSA-Compound 1 conjugate
Description: Into a 96 well ELISA plate (manufactured by Greiner), 0.05 μg/ml of the prepared conjugate was dispensed in at 50 μl/well and allowed to stand at 4° C. overnight for adsorption. After washing with PBS, PBS containing 1% BSA (hereinafter referred to as “1% BSA-PBS”) was added thereto at 100 μl/well and allowed to react at room temperature for 1 hour to block the remaining active groups. After washing each well with PBS containing 0.05% Tween 20 (hereinafter referred to as “Tween-PBS”), a culture supernatant of the transformant was added at 50 μl/well and allowed to react at room temperature for 1 hour. After the reaction and subsequent washing of each well with Tween-PBS, a peroxidase-labeled goat anti-human IgG(γ) antibody solution (manufactured by American Qualex) diluted 6,000 folds with 1% BSA-PBS was added as a secondary antibody solution at 50 μl/well and allowed to react at room temperature for 1 hour. After the reaction and subsequent washing with Tween-PBS, an ABTS substrate solution (a solution prepared by dissolving 0.55 g of 2,2′-azino-bis(3-ethylbenzothiazoline-6-sulfonic acid) ammonium in 1 liter of 0.1 M citrate buffer (pH 4.2) and adding 1 μl/ml hydrogen peroxide just before use) was added at 50 μl well to develop color, and the reaction was stopped 20 minutes thereafter by adding 5% SDS solution at 50 μl/well. Thereafter, absorbance at 415 nm was measured.

[3] = biological target: T2, BSA-Compound 1 conjugate (human CCR4 …); experiment: ELISA on BSA-Compound 1 conjugate, reference antibody
[4] = biological target: T3, human CCR4 on CCR4/EL-4 cells …; experiment: flow cytometry (immunofluorescent method) on CCR4/EL-4 cells, 10 ug/ml antibody, reference antibody
Description: Into a 96 well plate, 2×10⁵ or more of CCR4/EL-4 cells, CCR4-high-expressing cells obtained in Reference Example 1, were dispensed. An antibody solution was prepared by diluting each of the purified antibodies and a human immunoglobulin (manufactured by Welfide) for preventing nonspecific staining to give concentrations of 10 μg/ml and 3.75 mg/ml, respectively, with a buffer for FACS (1% BSA-PBS, 0.02% EDTA, 0.05% NaN₃), and the antibody solution was added at 100 μl/well and allowed to react for 30 minutes in ice. As a negative control, an anti-human IL-5 receptor α chain antibody (WO97/10354) was reacted with the same concentration. After washing twice with 200 μl/well of the buffer for FACS, a PE-labeled anti-human IgG antibody (manufactured by Coulter) diluted 100 times was added at 50 μl/well. After the reaction in ice under shading and subsequent washing three times with 200 μl/well of the buffer for FACS, the reaction product was suspended in 500 µl of the buffer for FACS and the fluorescence intensity was measured by using a flow cytometer.

Row | Binder | binding result [1] | binding result [2] | binding result [3] | binding result [4]
1 | B1 | binds | binds | – | –
2 | B2 | – | binds | – | –
3 | B3 | – | – | binds | binds
